Results: paper PMC8767186

Biological target: Spc105-mCherry (S. cerevisiae) (UniProt P53148)
Assay: co-IP; RFP-Trap beads (Chromotek) on cleared yeast lysates in buffer H 0.15 (25 mM HEPES pH 8.0, 150 mM KCl, 0.1% IGEPAL), overnight; blots with anti-GFP and anti-DsRed; band intensities by ImageJ, normalised to full length, input and Spc105 IP

UniProt P53148, sequence (P53148 whole entry): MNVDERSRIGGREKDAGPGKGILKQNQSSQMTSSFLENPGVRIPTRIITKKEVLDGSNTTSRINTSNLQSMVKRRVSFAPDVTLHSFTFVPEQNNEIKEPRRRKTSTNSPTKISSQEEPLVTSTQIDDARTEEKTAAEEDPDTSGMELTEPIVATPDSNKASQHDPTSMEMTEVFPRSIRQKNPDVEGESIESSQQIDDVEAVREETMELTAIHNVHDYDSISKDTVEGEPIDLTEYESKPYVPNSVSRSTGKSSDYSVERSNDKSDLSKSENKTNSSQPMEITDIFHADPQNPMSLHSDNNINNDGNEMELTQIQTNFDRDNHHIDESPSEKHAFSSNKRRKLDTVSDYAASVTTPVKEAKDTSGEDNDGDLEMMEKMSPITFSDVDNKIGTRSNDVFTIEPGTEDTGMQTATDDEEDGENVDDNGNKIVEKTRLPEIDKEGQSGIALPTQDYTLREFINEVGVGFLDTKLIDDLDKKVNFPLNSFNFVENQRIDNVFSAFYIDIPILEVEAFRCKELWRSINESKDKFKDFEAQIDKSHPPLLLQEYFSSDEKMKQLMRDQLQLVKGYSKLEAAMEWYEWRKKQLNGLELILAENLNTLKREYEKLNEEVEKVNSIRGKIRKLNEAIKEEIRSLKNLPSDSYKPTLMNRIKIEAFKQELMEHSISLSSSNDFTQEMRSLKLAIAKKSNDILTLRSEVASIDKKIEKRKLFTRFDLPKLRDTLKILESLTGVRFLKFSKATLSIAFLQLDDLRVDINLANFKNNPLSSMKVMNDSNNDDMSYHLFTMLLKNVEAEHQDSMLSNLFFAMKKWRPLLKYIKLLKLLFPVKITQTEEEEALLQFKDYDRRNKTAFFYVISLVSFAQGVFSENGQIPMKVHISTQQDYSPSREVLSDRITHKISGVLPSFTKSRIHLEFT

reduction of co-precipitation against full-length Kre28: 40%
Substance: GFP-kre28^Δ127–182 (from UniProt Q04431 1-385) (natural protein)
